Test results published in publication PMC6048764, “Myricetin antagonizes semen-derived enhancer of viral infection (SEVI) formation and influences its infection-enhancing activity” (Retrovirology, 2018).

B1: wild-type PAP257–273 [human] / itself (parent)
chain: RLQGGVLVNEILNHMKR

Variants of: B1
Assay: ThT assay (amyloid fibril formation, self-assembly)
Settings: with itself; peptide 3 mg/ml, agitated at 1400 rpm at 37 °C for 48 h; parent: 5.5e+03; read off a plot

Row | Variant | response
1 | RAQGGVLVNEILNHMKR [chain 1 L2A] | 7800
2 | RLQGGVLANEILNHMKR [chain 1 V8A] | 200
3 | RLQGGVLVNEIANHMKR [chain 1 L12A] | 11000

Now from value to variant:

Row | response | Variant
4 | 8300 | RLQGGVLVNEILNHMKA [chain 1 R17A]
5 | 1400 | RLQGGVLVNEILNHAKR [chain 1 M15A]
6 | 5100 | RLAGGVLVNEILNHMKR [chain 1 Q3A]
